Results taken from patent US20120148593A1 (published 2012).
Positions count from the first letter of the chain named.

T1: human MD-2 expressed in transfected HEK 293 cells (human, UniProt Q9Y6Y9 19-160)
T1 construct: also called MD-2 alone; wt MD-2
T1 chain: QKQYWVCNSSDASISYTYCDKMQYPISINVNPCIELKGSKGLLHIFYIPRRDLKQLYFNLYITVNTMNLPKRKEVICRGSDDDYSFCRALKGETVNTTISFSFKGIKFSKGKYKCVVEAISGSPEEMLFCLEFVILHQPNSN

T2: recombinant soluble MD-2 purified from baculovirus-infected insect cell supernatants (Homo sapiens (Human), UniProt Q9Y6Y9 19-160)
T2 construct: not shown: C-terminal FLAG and 6xHIS tags
T2 chain: T1 chain

B1: chimeric 18H10 MAb (antibody, V domains shown)
VH: QVQLQQSGADLVRPGALVKLSCTASGFNIKDSYIHWVKKRPEWGLEWIGWTDPENVNSIYDPRFQGKASITADTSSNTAFLQLTSLTSEDTAVYYCARGYNGVYYAMDYWGQGTTVTVSS
VL: QIVLTQSPSIMSASLGEEITLTCSASSSVIYMHWYQQKSGTSPKLLIYRTYNLASGVPSRFSGSGSGTFYSLTISSVEAEDAADYYCHQWSSFPYTFGGGTKLEIKR
notes: also called 18H10chim; 18H10 chimeric antibody
B2: chimeric 7E3 MAb (antibody, V domains shown)
VH: QVTLKESGPGILQPSQTLSLTCSFSGFSLTTYNIGVGWIRQPSGKGLEWLAHIWWNDNIYYNTVLKSRLTFSKDTSNNQVFLKIASVDIADTATYYCIRMAEGRYDAMDYWGQGTSVTVSS
VL: AIQMTQSTSSLSASLGDRVTINCRASQDITNYLNWYQQKPDGTVRLLIYYTSKLHSGAPSRFSGRGSGTDYSLTISNLEQEDIATYFCQQGNTFPWTFGGGTKLEIKR
notes: also called 7E3 CHIM; 7E3 chimeric antibody
B3: chimeric 15C1 MAb (antibody, V domains shown)
VH: DVQLQESGPDLIQPSQSLSLTCTVTGYSITGGYSWHWIRQFPGNKLEWMGYIHYSGYTDFNPSLKTRISITRDTSKNQFFLQLNSVTTEDTATYYCARKDPSDGFPYWGQGTLVTVSA
VL: DIVMTQSPATLSVTPGDRVSLSCRASQSISDHLHWYQQKSHESPRLLIKYASHAISGIPSRFSGSGSGTDFTLSIKSVEPEDIGVYYCQNGHSFPLTFGAGTKLELKR
notes: also called 15C1 CHIM; 15C1 chimeric antibody
B4: hu15C1 4-28 QC 30/A26 variant (antibody, V domains shown)
VH: QVQLQESGPGLVKPSDTLSLTCAVSGYSISGGYSWHWIRQPPGKGLEWMGYIHYSGYTDFNPSLKTRITISRDTSKNQFSLKLSSVTAVDTAVYYCARKDPSDGFPYWGQGTLVTVSS
VL: EIVLTQSPDFQSVTPKEKVTITCRASQSISDHLHWYQQKPDQSPKLLIKYASHAISGVPSRFSGSGSGTDFTLTINSLEAEDAATYYCQNGHSFPLTFGGGTKVEIK
notes: also called 15C1 4-28° C.30/A26
B5: hu15C1 4-28 QC 69/A26 variant (antibody, V domains shown)
VH: B4 VH with S30T, I70M
VL: B4 VL
notes: also called 15C1 4-28° C.69/A26
B6: hu15C1 4-28 QC 48/A26 variant (antibody, V domains shown)
VH: B4 VH with S30T, M49I
VL: B4 VL
notes: also called 15C1 4-28° C.48/A26
B7: hu15C1 4-28 QC 67/A26 variant (antibody, V domains shown)
VH: B4 VH with S30T, I68V
VL: B4 VL
notes: also called 15C1 4-28° C.67/A26
B8: mu18H10 murine monoclonal antibody (antibody, mouse IgG2b, V domains shown)
VH: B1 VH
VL: B1 VL
B9: mu7E3 murine monoclonal antibody (antibody, mouse IgG1, V domains shown)
VH: B2 VH
VL: B2 VL
B10: mu15C1 murine monoclonal antibody (antibody, mouse IgG1, V domains shown)
VH: B3 VH
VL: B3 VL
B11: mu16G7 murine monoclonal antibody (antibody, mouse IgG1, V domains shown)
VH: QVKLQESGAELMKPGASVKISCKATGYKFSDYWIEWIKQRPGHGLEWIGEILPGSGSTNYNEDFKDKATFTSDTSSNTAYMQLSSLTSEDSAVYYCAKEERAYYFGYWGQGTTVTVSS
VL: DVEMTQTPLSLPVSLGDQASISCRSSQSLENSNGNTYLNWYLQKPGQSPQLLIYRVSNRFSGVLDRFSGSGSGTDFTLKISRVEAEDLGVYFCLQVTHVPPTFGAGTKLELKR

molecular target: T3, human TLR4/MD-2 receptor complex expressed on transfected cells (human, UniProt O00206 24-839; Q9Y6Y9 19-160); assay: flow cytometry, TLR4/MD-2 transfected CHO cells
T3 construct: Tags differ by cell line: CHO-K1: N-terminal c-myc on TLR4, C-terminal c-Myc and Protein C on MD-2; also called TLR4/MD-2 complex; hTLR4/MD-2
Protocol: FIG. 41 is a graph depicting that the hu15C1 humanized antibody that includes VH 4-28 shown in SEQ ID NO:45 (“15C1 4-28/A26”) and variants thereof in which residues at chosen positions have been replaced by the corresponding amino acid in the given human germline (“15C1 4-28° C.30/A26”; “15C1 4-28° C.48/A26”; “15C1 4-28° C.67/A26” and “15C1 4-28° C.69/A26”, see TABLE 1) are capable of binding specifically to the human TLR4/MD-2 complex on the surface of transfected CHO cells. MAb binding to the TLR4/MD-2 transfected CHO cells is shown by flow cytometry using the hu15C1 antibodies or the chimeric 15C1 (“15C1 CHIM”) (described above) at the concentrations indicated. Binding is measured as a cellular Mean Fluorescence Intensity (MFI) value.

binding result | Binder
binds | B1
binds | B2
binds | B3
binds | B4
binds | B5
binds | B6
binds | B7

Molecular target: T1, human MD-2 expressed in transfected HEK …
Assay: sandwich ELISA, capture on anti-FLAG M2, biotinylated mu18H10
Protocol: For sample preparation, HEK 293 cells were transfected with the appropriate plasmid constructs using the Fugene 6™ transfection reagent as described in paragraph G above. 48 hours post-transfection, cells were collected and cleared by centrifugation. Cells were subsequently incubated with biotinylated mu18H10 (10 μg/ml) and lysed in 20 mM Tris pH 7.4, 150 mM NaCl, 1% NP40 containing COMPLETE™ protease inhibitors (Roche).
To perform the sandwich ELISA, Nunc maxisorp plate wells were coated with 50 μl of the anti-FLAG™ M2 MAb (Sigma) at a concentration of 5 μg/ml in PBS. Wells were blocked with 200 μl PBS 2% BSA and subsequently incubated with 50 μl of the appropriate samples at the indicated dilution. Wells were washed three times with 200 μl PBS 0.05% Tween 20 and incubated with 50 μl of the appropriate antibody (10 μg/ml for biotinylated mu18H10 and 12D4, 1 μg/ml for the polyclonal […]). Following a wash step as above, wells were incubated with 50 μl of the appropriate detection antibody (HRP conjugated streptavidin at a dilution of 1:1500 for the biotinylated MAbs and HRP conjugated anti-rabbit IgG (H+L) at a dilution of 1:5000 for the polyclonal rabbit Ab). […] Plates were read at a wavelength of 650 nm.

binding result | Binder
no binding (tested: 10 µg/ml) | B8

molecular target: T3, human TLR4/MD-2 receptor complex …; assay: flow cytometry, mock transfected vs TLR4/MD-2 transfected cells
Target sequence in this assay (O00206 24-839 limits assumed, chain 1 of 2, one chain of several): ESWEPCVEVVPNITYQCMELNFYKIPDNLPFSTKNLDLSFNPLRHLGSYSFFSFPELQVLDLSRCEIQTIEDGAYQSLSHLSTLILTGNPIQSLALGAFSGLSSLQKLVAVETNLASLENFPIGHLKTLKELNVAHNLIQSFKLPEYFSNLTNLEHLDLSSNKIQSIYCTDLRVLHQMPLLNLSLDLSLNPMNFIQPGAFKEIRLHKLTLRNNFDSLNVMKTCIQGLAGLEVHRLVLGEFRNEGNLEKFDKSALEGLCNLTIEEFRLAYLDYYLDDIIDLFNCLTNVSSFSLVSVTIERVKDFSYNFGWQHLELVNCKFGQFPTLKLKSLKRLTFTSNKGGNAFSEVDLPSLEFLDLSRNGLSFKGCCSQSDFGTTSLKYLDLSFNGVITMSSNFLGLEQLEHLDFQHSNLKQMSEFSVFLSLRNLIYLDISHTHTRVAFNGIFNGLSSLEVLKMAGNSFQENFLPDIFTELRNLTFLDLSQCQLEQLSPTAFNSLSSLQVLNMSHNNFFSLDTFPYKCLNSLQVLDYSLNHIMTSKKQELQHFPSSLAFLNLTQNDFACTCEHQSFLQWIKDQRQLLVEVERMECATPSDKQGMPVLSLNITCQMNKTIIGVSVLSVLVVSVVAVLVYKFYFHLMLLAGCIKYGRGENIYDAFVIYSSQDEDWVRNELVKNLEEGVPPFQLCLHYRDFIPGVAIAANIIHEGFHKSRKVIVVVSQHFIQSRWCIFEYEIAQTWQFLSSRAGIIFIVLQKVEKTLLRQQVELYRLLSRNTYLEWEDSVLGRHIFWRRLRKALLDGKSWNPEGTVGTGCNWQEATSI

binding result | Binder
binds | B8
binds | B9
binds | B10
binds | B11

Molecular target: T2, recombinant soluble MD-2 purified from …
Assay: direct ELISA, MD-2 coated at 5 µg/ml
Protocol: Recombinant soluble MD-2 with C terminal FLAG and histidine epitope tags was coated at a concentration of 5 μg/ml in 50 μl PBS on ELISA plates (Nunc Maxisorp). Wells were blocked with 200 μl PBS 2% BSA and subsequently incubated with the appropriate MAb at the indicated concentration in PBS 1% BSA. Following 3 wash steps with PBS 0.05% Tween 20, 50 μl HRP conjugated goat anti-mouse IgG (H+L) at a 1:5000 dilution was added to the wells. […] Plates were read at a wavelength of 650 nm.
Using direct ELISA, no binding of mu18H10 to recombinant soluble MD-2 generated with the baculovirus expression system was detected (FIG. 5a).

binding result | Binder
no binding | B8
